Measurements from paper PMC6034166.

Biological target: ethylenediamine-N,N′-disuccinic acid lyase (EDDS lyase) from Chelativorans sp. BNC1 (Chelativorans sp. BNC1)
Test: SEC + other: dynamic light scattering

stoichiometry N: 4
Substance: ethylenediamine-N,N′-disuccinic acid lyase (EDDS lyase) from Chelativorans sp. BNC1 (enzyme)
